Experimental data as given in paper PMC11330416.
“And” between values parts separate entries of the source, which are not always exact repeats. Identical values can stand only once.

Columns and labels:
[1] = biological target: SARS-CoV-2 Omicron BA.4/5 spike protein reference material OMIC-1 (SARS-CoV-2 (Omicron BA.4/BA.5) | human) (UniProt P0DTC2); experiment: SEC-MALS; Waters BEH SEC 4.6 x 150 mm column (200 A for ACE2-1, 450 A for OMIC-1), DPBS with 0.02% Tween-20, pH 7.4, 0.4 mL/min; UV at 280 nm, MALS and RI detection; relative amounts of species from SEC-UV
[2] = biological target: biotinylated human angiotensin-converting enzyme 2 reference material ACE2-1 (human) (UniProt Q9BYF1); experiment: SPR; ACE2-1 immobilised by its biotin on streptavidin on a biotin-coated Au chip (250-300 RU), blocked with 10 uM BSA; spike analyte in a twofold series of 12.5-200 nM at 50 uL/min, about 90 s association, 30-45 min dissociation; 10 mM HEPES pH 7-7.4, 150 mM NaCl, 3 mM EDTA, 0.05% Tween-20; 1:1 binding model; averages of two independent experiments
Chain of biotinylated human angiotensin-converting enzyme 2 reference material ACE2-1 (human) (Q9BYF1 20-614): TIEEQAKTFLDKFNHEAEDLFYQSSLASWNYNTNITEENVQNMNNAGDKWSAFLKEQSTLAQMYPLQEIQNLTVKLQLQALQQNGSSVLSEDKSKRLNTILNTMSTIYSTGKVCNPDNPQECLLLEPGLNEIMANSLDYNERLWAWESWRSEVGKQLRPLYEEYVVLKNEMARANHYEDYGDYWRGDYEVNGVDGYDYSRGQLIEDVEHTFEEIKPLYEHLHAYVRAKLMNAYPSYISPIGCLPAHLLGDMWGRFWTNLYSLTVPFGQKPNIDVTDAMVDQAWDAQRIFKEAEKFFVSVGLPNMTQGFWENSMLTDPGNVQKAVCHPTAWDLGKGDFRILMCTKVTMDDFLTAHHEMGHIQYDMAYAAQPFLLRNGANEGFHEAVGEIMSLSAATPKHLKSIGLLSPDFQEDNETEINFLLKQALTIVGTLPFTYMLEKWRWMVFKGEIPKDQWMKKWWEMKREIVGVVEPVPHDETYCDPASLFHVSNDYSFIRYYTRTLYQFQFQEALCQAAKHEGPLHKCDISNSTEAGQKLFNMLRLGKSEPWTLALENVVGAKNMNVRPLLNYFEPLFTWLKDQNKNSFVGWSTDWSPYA

## SARS-CoV-2 Omicron BA.4/5 spike protein reference material OMIC-1 (from UniProt P0DTC2 14-1213)
[1]
  percent in higher molecular weight oligomers (SEC-UV): 14%
  percent in the trimeric form (SEC-UV): 82%
  stoichiometry N: 3 and 6
[2]
  Kd: 4.4 nM
